The series deals with O=c1ccn([C@@H]2O[C@H](COP(=O)(O)OP(=O)(O)OP(=O)(O)O)[C@@H](O)[C@H]2O)c(=O)[nH]1. In words: purified protein. The conditions noted are these: 20 mM Tris-HCl pH 8.0, 5 mM DTT, 10 mM MgCl2, 28°C, 16 nM enzyme, no RNA.

On to ALSV NS3-Hel (Alongshan virus), for which the Km was found to be 185 ± 19 µM and the kcat amounted to 0.85 ± 0.02 s⁻¹.

In general, Km refers to the concentration of substrate that gives half-maximal velocity. What is called kcat is the number of substrate molecules converted per active site and unit of time at saturation.
